Measurements: publication PMC3689823

Key:
YFP-Clu (human) [1] = assay: FRET or BRET; sensitized emission FRET in co-transfected HEK293T cells, CFP donor and YFP receptor, laser confocal microscope
YFP-Clu (human) [2] = assay: FRET or BRET; receptor (acceptor) photobleaching FRET in co-transfected HEK293T cells, CFP donor and YFP receptor, bleached at 515 nm for 60 s

FRET efficiency (YFP-Clu (human) [2]): 41.8%
Substance: CFP-SelR′ (from UniProt Q9NZV6 1-116) (enzyme)
FRET efficiency (YFP-Clu (human) [1]): 40%
